Data set [1] deals with T1, KpDnaB helicase (Klebsiella pneumoniae, UniProt A6TGW0 1-471). In words: EMSA; no flavonol; apparent Kd; 20 mM HEPES pH 7.0, 100 mM NaCl, 25 C, 30 min, 1.7 nM dT30, no Mg2+ or nucleotide stated; native 8% PAGE in TBE at 4 C. In general terms: Mobility shift assays separate free from complexed probe on a gel.
The target in data set [2] is T1, KpDnaB helicase. Kind of data set: EMSA; 16.7 uM kaempferol; apparent Kd; 20 mM HEPES pH 7.0, 100 mM NaCl, 25 C, 30 min, 1.7 nM dT30, no Mg2+ or nucleotide stated; native 8% PAGE in TBE at 4 C.
The target in data set [3] is T1, KpDnaB helicase. In words: EMSA; 16.7 uM galangin; apparent Kd; 20 mM HEPES pH 7.0, 100 mM NaCl, 25 C, 30 min, 1.7 nM dT30, no Mg2+ or nucleotide stated; native 8% PAGE in TBE at 4 C.
The target in data set [4] is T1, KpDnaB helicase. Kind of data set: EMSA; 16.7 uM quercetin; apparent Kd; 20 mM HEPES pH 7.0, 100 mM NaCl, 25 C, 30 min, 1.7 nM dT30, no Mg2+ or nucleotide stated; native 8% PAGE in TBE at 4 C.
The target of data set [5] is T1, KpDnaB helicase. Kind of data set: EMSA; 16.7 uM myricetin; apparent Kd; 20 mM HEPES pH 7.0, 100 mM NaCl, 25 C, 30 min, 1.7 nM dT30, no Mg2+ or nucleotide stated; native 8% PAGE in TBE at 4 C.

Our source for the Kd values is PMC3468084.

TTTTTTTTTTTTTTTTTTTTTTTTTTTTTT (ssDNA) [dT30]: the Kd in the data set with KpDnaB helicase [1] worked out at 970 ± 70 nM; in the data set with KpDnaB helicase [2], 1100 ± 50 nM; with KpDnaB helicase [3] it was 1030 ± 60 nM; with KpDnaB helicase [4], 1030 ± 70 nM; with KpDnaB helicase [5], 1110 ± 50 nM.
